Data set [1] concerns the target T1, Xyr1 (Xylanase regulator 1) (Trichoderma reesei, UniProt G0RLE8 1-920).
T1 sequence: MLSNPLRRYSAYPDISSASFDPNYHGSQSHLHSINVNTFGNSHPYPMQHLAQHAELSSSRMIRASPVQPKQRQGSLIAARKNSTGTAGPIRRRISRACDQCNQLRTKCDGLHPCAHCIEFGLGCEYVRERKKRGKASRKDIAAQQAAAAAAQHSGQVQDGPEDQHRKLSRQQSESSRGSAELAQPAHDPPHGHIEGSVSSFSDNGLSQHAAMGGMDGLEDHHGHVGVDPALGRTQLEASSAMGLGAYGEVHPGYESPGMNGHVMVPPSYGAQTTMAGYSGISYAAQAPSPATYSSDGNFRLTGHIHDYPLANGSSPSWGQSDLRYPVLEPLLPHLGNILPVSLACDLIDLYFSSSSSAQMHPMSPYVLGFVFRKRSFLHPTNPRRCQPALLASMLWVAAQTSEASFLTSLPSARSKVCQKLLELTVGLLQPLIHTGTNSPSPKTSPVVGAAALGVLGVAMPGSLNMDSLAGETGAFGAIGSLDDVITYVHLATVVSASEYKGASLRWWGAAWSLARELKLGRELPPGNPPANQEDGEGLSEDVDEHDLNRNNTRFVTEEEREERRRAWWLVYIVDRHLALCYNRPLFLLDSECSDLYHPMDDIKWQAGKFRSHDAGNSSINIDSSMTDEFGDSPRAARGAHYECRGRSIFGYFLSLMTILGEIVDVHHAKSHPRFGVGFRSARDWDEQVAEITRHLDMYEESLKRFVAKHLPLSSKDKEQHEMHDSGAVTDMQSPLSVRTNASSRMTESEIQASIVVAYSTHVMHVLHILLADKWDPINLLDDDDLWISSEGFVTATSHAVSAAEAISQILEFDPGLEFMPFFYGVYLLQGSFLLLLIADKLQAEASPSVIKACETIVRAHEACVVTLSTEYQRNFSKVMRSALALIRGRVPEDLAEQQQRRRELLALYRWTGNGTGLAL
The data set can be described thus: circular dichroism; 1.8 or 3.6 uM DNA, 0.5 uM Xyr1; EMSA/RNA-EMSA: 10 mM Tricine, 50 mM NaCl, pH 7.4, 22 C, 10 min; gel 0.5x TBE, 4 C. CD: 50 mM Tris, 200 mM NaCl, 50 mM NaH2PO4, 10% glycerol, pH 7.5, 22 C. Conditions: protein: recombinant; chain copies: 2; blunt.

Data set [2] concerns the target T1, Xyr1 (Xylanase regulator 1). Description: circular dichroism; 1.8 or 3.6 uM DNA, 0.5 uM Xyr1; larger loss of ellipticity at 222 nm than XBS; EMSA/RNA-EMSA: 10 mM Tricine, 50 mM NaCl, pH 7.4, 22 C, 10 min; gel 0.5x TBE, 4 C. CD: 50 mM Tris, 200 mM NaCl, 50 mM NaH2PO4, 10% glycerol, pH 7.5, 22 C. Conditions: protein: recombinant; chain copies: 2; blunt. A general note: Circular dichroism is widely used to follow secondary structure.

B1: XBS probe (xyn1 promoter) (dsDNA)
DNA 1: TTGGCAGGCTAAATGCGACATCTTAGCCGGATGCA
DNA 2: TGCATCCGGCTAAGATGTCGCATTTAGCCTGCCAA
On to B1, for which, in data set [1], the binding result is given as “binds”.

B2: XRE probe (xyr1 promoter) (dsDNA)
DNA 1: CACTGGATACCTACCTAGGTAGTCTGCAGCAGAAG
DNA 2: CTTCTGCTGCAGACTACCTAGGTAGGTATCCAGTG
For the molecule B2, in data set [2], the binding result is “binds”.

The record behind these values is article PMC6948969, “Regulation of gene expression by the action of a fungal lncRNA on a transactivator”.
